Measured values taken from patent publication US20260167702A1, “HUMAN BROADLY CRO[…] […] METHODS OF USE THEREOF” (Dana-Farber Cancer Institute, Inc., priority 2021, published 2026).
Values joined by “and” are separate entries in the source; they are usually repeats but may differ in a detail not shown here. Identical values can stand only once. “Also recorded” adds a separate entry of the source. Like-named read-outs stand apart in the source and are kept apart here.

Legend:
in_vivo [1] = details: cited from earlier work
in_vivo [2] = details: oseltamivir combined with up to 8,400 mg antibody; cited from earlier work
binding [3] = tested on: binding; parameters: species or system influenza A virus
cell_based [4] = tested on: cell_based; parameters: species or system influenza A virus
in_vivo [5] = test: Influenza ADE study in mice, lung virus load by plaque assay; parameters: species or system BALB/c mice
From the text: Graphs of lung virus load vs dose in 3I14 (left) and 3I14 LALA (right) in an influenza antibody-dependent enhancement study in mice.
3I14 LALA avoids antibody-dependent enhancement (ADE).

in_vivo [6] = tested on: in_vivo; parameters: species or system BALB/c mice
cell_based [7] = tested on: cell_based; parameters: species or system influenza A virus; remark: listed apart in the source
binding [8] = details: read-out: mean Kd H9-HK99
binding [9] = tested on: binding; parameters: species or system influenza A virus; remark: listed apart in the source
binding [10] = biological target: binding; parameters: species or system influenza A virus; details: read-out: mean Kd H5-IN05
cell_based [11] = tested on: cell_based
binding [12] = tested on: binding; parameters: species or system influenza A virus; remark: listed apart in the source
cell_based [13] = tested on: T1, cell_based; parameters: species or system influenza A virus
T1 construct: other: purified scFvFc antibodies; transfected 293T cells; The full length HA genes of ... were cloned into pcDNA3.1 vector and transfected into 293T/17 cells to produce cell surface expressed HA

cell_based [14] = tested on: cell_based; parameters: species or system influenza A virus; remark: listed apart in the source
biochemical_functional = tested on: biochemical_functional; parameters: species or system influenza A virus; details: pH 8
binding [15] = tested on: binding; parameters: species or system influenza A virus; remark: listed apart in the source
cell_based [16] = tested on: cell_based; remark: listed apart in the source
in_vivo [17] = tested on: in_vivo; parameters: species or system BALB/c mice; remark: listed apart in the source
cell_based [18] = biological target: cell_based (Influenza A virus, UniProt P03452)
Chain of cell_based (Influenza A virus, UniProt P03452) (P03452 344-565): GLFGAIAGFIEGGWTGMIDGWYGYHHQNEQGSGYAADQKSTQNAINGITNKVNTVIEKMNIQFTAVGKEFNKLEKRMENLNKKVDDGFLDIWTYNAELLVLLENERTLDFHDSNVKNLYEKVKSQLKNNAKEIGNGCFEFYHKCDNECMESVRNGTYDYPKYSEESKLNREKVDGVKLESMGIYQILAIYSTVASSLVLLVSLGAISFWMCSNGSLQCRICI
Chain of cell_based (Influenza A virus, UniProt P03452) (P03452 18-343): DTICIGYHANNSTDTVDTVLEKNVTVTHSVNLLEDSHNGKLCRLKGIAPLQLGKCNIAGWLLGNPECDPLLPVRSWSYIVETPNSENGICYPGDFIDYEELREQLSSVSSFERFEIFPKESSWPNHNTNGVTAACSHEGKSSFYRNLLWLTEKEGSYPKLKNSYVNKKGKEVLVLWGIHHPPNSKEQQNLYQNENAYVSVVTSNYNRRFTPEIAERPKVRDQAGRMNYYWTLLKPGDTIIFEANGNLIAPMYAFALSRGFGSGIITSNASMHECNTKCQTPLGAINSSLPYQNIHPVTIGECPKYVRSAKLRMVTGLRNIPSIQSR

in_vivo [19] = tested on: in_vivo; parameters: species or system BALB/c mice; remark: listed apart in the source
binding [20] = biological target: binding (Influenza A virus, UniProt C3W5S1)
in_vivo [21] = tested on: in_vivo; parameters: species or system BALB/c mice; remark: listed apart in the source
cell_based [22] = biological target: cell_based (Influenza A virus, UniProt C3W5S1)
binding [23] = tested on: binding; parameters: species or system influenza A virus; remark: listed apart in the source
binding [24] = tested on: binding; parameters: species or system influenza A virus; remark: listed apart in the source

B1: MHAA4549A: Genentech broadly neutralizing influenza A mAb (antibody, chains of the INN, looked up, V domains shown)
VH: EVQLVESGGGVVQPGKSLRLSCAASGLTFSSYAVHWVRQAPGKGLEWVTLISYDGANQYYADSVKGRFTISRDNSKNTVYLQMNSLRPEDTAVYYCAVPGPVFGIFPPWSYFDNWGQGILVTVSS
VL: EIVLTQSPATLSVSPGERATLSCRASQVISHNLAWYQQKPGQAPRLLIYGASTRASGIPARFSGSGSGTDYTLTITSLQSEDFAVYYCQHYSNWPPRLTFGGGTKVEIK
For B1, which viral load (in_vivo [1]; 1200 mg, listed as MHAA4549A/Gedivumab) is on record?
Its viral load is “increase in viral load”.

What about the viral loads (in_vivo [1]; 400 and 3600 mg) of the same molecule?
The viral loads was “reduction in viral loads”.

What about the “O2 or ventilation support” value (in_vivo [2]) of the same molecule?
Its value is “required increase in O2 or ventilation support”.

And the “duration of viral shedding” value (in_vivo [2])?
Its value is “increased duration of viral shedding”.

What about the “fatality due to any cause” value (in_vivo [2]) of the same molecule?
The value was “higher fatality percentage due to any cause”.

B2: 3I14: human broadly neutralizing anti-influenza A HA stem mAb from memory B cells; VH SEQ ID NO: 2, VL SEQ ID NO: 4 (antibody, V domains shown)
VH: QVQLLESGGGVVQPGRSLRLSCAASGFTFSNYGMHWVRQAPGKGLEWVAIISFDGSKKYYANSVKGRSTISRDNSKNTLSLQMNSLGPEDTALYYCAKLPSPYYFDSRFVWVAASAFHFWGQGILVTVSS
VL: NFMLTQPPSASGTPGQRVTISCSGSSSNIGGNTVHWFQQLPGTAPKLLIYTNSLRPSGVPDRFSGSKSGTSASLAISGLQSEDEADYYCAAWDDSLNGQVFGGGTKLTVL
For B2, which “Koff H3-PE09” value (binding [3]) is on record?
Its value is 3.99e-05 s⁻¹.

And the “Kon H3-PE09” value (binding [3])?
The value was 152000 M⁻¹ s⁻¹.

What about the “binding to trimeric full-length H3 A/Perth/16/09” value (binding [3]) of the same molecule?
The value was “bound”.

And the “IC50 H5-VN04 pseudovirus” value (cell_based [4])?
Its value is 0.08158 µg/mL.

And the “virus levels in the lungs at high doses” value (in_vivo [5]; doses ≥5 mg/kg)?
Its value is “reduced virus levels”.

And the “increase of viral titers in lung tissue, 3I14 compared to 3I14 LALA” value (in_vivo [5]; intermediate low dose levels)?
The value was ~2 fold.

What about the “virus levels in the lungs compared with controls” value (in_vivo [5]; intermediate low dose levels, IP 1 hour prior to intranasal challenge, Day 4) of the same molecule?
Its value is ~2 fold.

What about the “body weight loss, H7N9-AH13 challenge” value (in_vivo [6]) of the same molecule?
Its value is “minimal body weight loss”.

And the “protection from death, H7N9-AH13 challenge” value (in_vivo [6])?
The value was “fully protected”.

What about the “HA1-HA2 dissociation after DTT treatment” value (cell_based [7]) of the same molecule?
The value was “prevented HA1-HA2 dissociation”.

And the “binding to dissociated HA2 mediated by DTT reduction” value (cell_based [7])?
The value was “did not bind”.

And the “binding to uncleaved HA precursor (HA0) and mature forms (HA)” value (cell_based [7])?
Its value is “binds to both uncleaved HA precursor (HA0)”.

And the “inhibition of pH-dependent HA rearrangement” value (cell_based [7]; pH 4.9)?
Its value is “inhibits the pH-dependent HA rearrangement”.

What about the Kd (binding [8]) of the same molecule?
Its Kd is 5.23 nM.

What about the “inhibition of binding of 39.29 and F10 to H5-VN04” value (binding [9]) of the same molecule?
Its value is “inhibited; also recorded: partially inhibits”.

What about the “inhibition of binding of anti-H5 head antibody 2A to H5-VN04” value (binding [9]) of the same molecule?
Its value is “did not inhibit; also recorded: does not inhibit”.

And the Kd (binding [10])?
Its Kd is 1.05 nM.

What about the “luciferase response in Jurkat reporter cells (ADCC), H3 targets” value (cell_based [11]) of the same molecule?
The value was “induced a significant luciferase response”.

And the “Koff H5-VN04” value (binding [12])?
The value was 0.000383 s⁻¹ and 0.000387 s⁻¹.

What about the “Kon H5-VN04” value (binding [12]) of the same molecule?
Its value is 375000 M⁻¹ s⁻¹ and 327000 M⁻¹ s⁻¹.

And the “binding to cell surface-expressed HAs by flow cytometry” value (cell_based [13])?
The value was “bound”.

What about the “IC50 H3-BR07 infectious virus” value (cell_based [14]) of the same molecule?
Its value is 0.3054 µg/mL.

And the “prevention of trypsin cleavage of immature HA0” value (biochemical_functional)?
Its value is “prevented cleavage of immature HA0”.

What about the “affinity for H1 subtypes” value (binding [15]) of the same molecule?
Its value is “high affinity”.

What about the “luciferase response in Jurkat reporter cells (ADCC), H5 targets” value (cell_based [16]) of the same molecule?
Its value is “at a lower level than FI6v3, CR9114, 39.29 and F10”.

And the “body weight loss, H7N7-NL219 challenge” value (in_vivo [17])?
The value was “minimal body weight loss”.

And the “protection from death, H7N7-NL219 challenge” value (in_vivo [17])?
The value was “fully protected”.

And the “IC50 H1-PR8” value (cell_based [18])?
The value was 0.413 µg/mL.

And the “protection against H3N2-BR07” value (in_vivo [19])?
Its value is 80%.

And the “protection against H3N2-BR07, over doses” value (in_vivo [19])?
The value was 60-80%.

And the “Koff H1-CA09” value (binding [20])?
Its value is 4.87e-05 s⁻¹.

What about the “Kon H1-CA09” value (binding [20]) of the same molecule?
The value was 174000 M⁻¹ s⁻¹.

And the Kd (binding [20]; read-out: Kd H1-CA09)?
The Kd was 0.279 nM.

And the “protection against H5N1-VN04” value (in_vivo [21])?
The value was 60%.

And the “protection against H5N1-VN04, over doses” value (in_vivo [21])?
The value was 20-60%.

And the “IC50 H1-CA09” value (cell_based [22])?
Its value is 0.225 µg/mL.

What about the “binding to HA1 subunit of H3 PE-09” value (binding [23]) of the same molecule?
The value was “did not bind”.

B3: 3I14 Fab: Fab of 3I14 used in the binding competition ELISA (antibody, V domains shown)
VH: QVQLLESGGGVVQPGRSLRLSCAASGFTFSNYGMHWVRQAPGKGLEWVAIISFDGSKKYYANSVKGRSTISRDNSKNTLSLQMNSLGPEDTALYYCAKLPSPYYFDSRFVWVAASAFHFWGQGILVTVSS
VL: NFMLTQPPSASGTPGQRVTISCSGSSSNIGGNTVHWFQQLPGTAPKLLIYTNSLRPSGVPDRFSGSKSGTSASLAISGLQSEDEADYYCAAWDDSLNGQVFGGGTKLTVL
With B3 as the molecule, how does the “competition with E730 (anti-HA1 head Ab) for binding to H3-BR07” value (binding [24]) read?
The value was “did not compete”.

And the “competition with anti-stem Abs CR8020, CR9114, FI6(v3) and 39.29 for binding to H3-BR07” value (binding [24])?
The value was “cross-competed; also recorded: strongly inhibits”.
